From publication doi:10.1101/2021.12.16.472980

Target: Suppressor of potassium transport defect 3 (SKD3), mature IMS form, residues 127-707 (human) (UniProt Q9H078)
Assay: AUC

## Suppressor of potassium transport defect 3 (SKD3), mature IMS form, residues 127-707 (from UniProt Q9H078 127-707) (enzyme)
  stoichiometry N: 12
